Read-outs that look alike come from different tables or passages of the source.
T1: cynomolgus CD3 on T cells (cynomolgus monkey)
T1 chain: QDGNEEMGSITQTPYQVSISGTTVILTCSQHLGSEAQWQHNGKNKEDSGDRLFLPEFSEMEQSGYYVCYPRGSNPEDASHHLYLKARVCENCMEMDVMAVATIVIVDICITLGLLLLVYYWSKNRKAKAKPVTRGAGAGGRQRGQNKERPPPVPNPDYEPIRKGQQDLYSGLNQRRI

B1: H1H5751P (antibody)
chain 1: EVQLVESGGDLVQPGRSLRLSCAASGFTFDDYTMHWVRQAPGKGLEWVSIISWNGNTIDYADSVKGRFTISRDNAKNSLYLQMNSLRAEDTALYYCAKDKSGYGHFYYYVLDVWGQGTTVTVSS
chain 2: DIQMTQSPSSLSASVGDRVTITCRASQSINNYLNWYQQKPGKAPKLLIYAASSLQSGVPSRFSGSGSGTDFTLTISSLQPEDFATYYSQQSYSFPWTFGQGTKVEIK
B2: H1H5761P (antibody, V domains shown)
VH: QVQLVESGGGVVQPGRSLRLSCAASGFTFSSYGMHWVRQAPGKGLEWVAVISYDGSNKYYADSVKGRFTISRDYSKNTLYLQMNSLRAEDTAVFYCAKGAMVRGVPYNYYYGMDVWGQGTTVTVSS
VL: DIQMTQSPSSLSASVGDRVTITCRASQGIRNDLGWFQQKPGKAPKRLIYAASSLQSGVPSRFSGSGSGTEFTLTISSLQPEDFATYYCLQHNSYPYTFGQGTKLEIK
B3: H1H5764P (antibody, V domains shown)
VH: QVQLVESGGGVVQPGRSLRLSCAASGFTFRSFGMHWVRQAPGKGLEWVAVISYDGNYKYYADSVKGRFTISRDNSKNTLYLQMNSLRAEDTAVHYCAKGAMVRGVPYNFYYGMDVWGQGTTVTVSS
VL: DIQMTQSPSSLSASVGDRVTITCRASQVIRNDLGWYQQKPGKAPKRLIYAASSLQSGIPSRFSGSGSGTEFTLTISSLQPEDFATYYCLQHNSYPYTFGQGTKLEIK
B4: H1H5758B (antibody, V domains shown)
VH: EVQLVESGGGVVQPGRSLRLSCAASGFTFSSYGMHWVRQAPGKGLEWVTVILHDGSNRYYADSVKGRFTISRDNSKNTLYLQMNILRAEDTAVYYCTKGAMVRGVPYNHYYGMDVWGQGTTVTVSS
VL: DIVMTQSPSSLSASVGDRVTITCRASQGIRNDLGWYQQKPGKAPKRLIYAASNLQSGVPSRFSGSGSGTEFTLTISSLQPEDFATYYCLQHNSYPYTFGQGTKLEIKR
B5: BSPSMA/CD3-1700 CD3 arm (antibody, V domains shown)
VH: EVQLVESGGGLVQPGRSLRLSCAASGFTFDDYSMHWVRQAPGKGLEWVSGISWNSGSKGYADSVKGRFTISRDNAKNSLYLQMNSLRAEDTALYYCAKYGSGYGKFYYYGMDVWGQGTTVTVSS
VL: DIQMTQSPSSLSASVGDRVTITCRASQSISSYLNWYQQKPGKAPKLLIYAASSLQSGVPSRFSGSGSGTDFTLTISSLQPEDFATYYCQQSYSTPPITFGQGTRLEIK
B6: BSPSMA/CD3-005 CD3 arm (antibody, V domains shown)
VH: EVQLVESGGGLVQPGRSLRLSCAASGFTFDDYSMHWVRQAPGKGLEWVSGISWNSGSIGYADSVKGRFTISRDNAKNSLYLQMNSLRAEDTALYYCAKYGSGYGKFYYYGMDVWGQGTTVTVSS
VL: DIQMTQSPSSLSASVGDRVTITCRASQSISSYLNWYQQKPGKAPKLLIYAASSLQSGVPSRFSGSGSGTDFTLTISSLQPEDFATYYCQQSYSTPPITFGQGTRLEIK
B7: H2M2778N (antibody, V domains shown)
VH: EVQLVESGGGLVQPGRSLRLSCAASGFTFDDYSMHWVRQAPGKGLEWVSGISWNSRSIDYADSVKGRFTISRDNAKNSLYLQMNSLRAEDTALYYCVKDNSGYGRYYYYGMDVWGQGTTVSVSS
VL: KIVMTQSPATLSVSPGERATLSCRASQSVSGNLAWYQQKPGQAPRLLIYGASTRATSIPARFSGSGSGTEFTLTISSLQSEDFAVYFCQHYYNWPLTFGGGTKVEIR
B8: BSPSMA/CD3-004 CD3 arm (antibody, V domains shown)
VH: EVQLVESGGGLVQPGRSLRLSCAASGFTFDDYSMHWVRQAPGKGLEWVSGISWNSGSIGYADSVKGRFTISRDNAKNSLYLQMNSLRAEDTALYYCAKDGSGYGKFYYYGMDVWGQGTTVTVSS
VL: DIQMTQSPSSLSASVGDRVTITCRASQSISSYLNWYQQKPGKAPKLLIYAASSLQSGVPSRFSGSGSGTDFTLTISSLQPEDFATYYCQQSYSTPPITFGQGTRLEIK
B9: BSPSMA/CD3-1100 CD3 arm (antibody, V domains shown)
VH: EVQLVESGGGLVQPGRSLRLSCAASGFTFDDYSMHWVRQAPGKGLEWVSGISWNSGSKGYADSVKGRFTISRDNAKNSLYLQMNSLRAEDTALYYCAKYGSGYGKFYHYGMDVWGQGTTVTVSS
VL: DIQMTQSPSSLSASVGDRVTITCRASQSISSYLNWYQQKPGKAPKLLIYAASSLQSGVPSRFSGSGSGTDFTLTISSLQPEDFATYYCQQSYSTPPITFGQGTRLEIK
B10: BSPSMA/CD3-1300 CD3 arm (antibody, V domains shown)
VH: EVQLVESGGGLVQPGRSLRLSCAASGFTFDDYSMHWVRQAPGKGLEWVSGISWNSGSIGYADSVKGRFTISRDNAKNSLYLQMNSLRAEDTALYYCAKYGSGYGKFYYYGLDVWGQGTTVTVSS
VL: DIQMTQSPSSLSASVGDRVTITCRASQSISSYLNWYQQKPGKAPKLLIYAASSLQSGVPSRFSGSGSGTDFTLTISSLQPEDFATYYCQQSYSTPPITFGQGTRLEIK
B11: BSPSMA/CD3-1800 CD3 arm (antibody, V domains shown)
VH: EVQLVESGGGLVQPGRSLRLSCAASGFTFDDYSMHWVRQAPGKGLEWVSGISWNSGSIGYADSVKGRFTISRDNAKNSLYLQMNSLRAEDTALYYCAKDGSGYGKFYYYGLDVWGQGTTVTVSS
VL: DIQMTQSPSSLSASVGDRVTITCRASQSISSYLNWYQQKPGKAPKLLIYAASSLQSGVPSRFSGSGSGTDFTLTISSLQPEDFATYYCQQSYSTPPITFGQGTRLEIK
B12: BSPSMA/CD3-800 CD3 arm (antibody, V domains shown)
VH: EVQLVESGGGLVQPGRSLRLSCAASGFTFDDYSMHWVRQAPGKGLEWVSGISWNSGSIGYADSVKGRFTISRDNAKNSLYLQMNSLRAEDTALYYCAKYGSGYGKFYHYGLDVWGQGTTVTVSS
VL: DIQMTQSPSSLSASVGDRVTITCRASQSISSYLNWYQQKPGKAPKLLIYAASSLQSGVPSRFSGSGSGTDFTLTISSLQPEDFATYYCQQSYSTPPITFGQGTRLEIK
B13: BSPSMA/CD3-003 CD3 arm (antibody, V domains shown)
VH: EVQLVESGGGLVQPGRSLRLSCAASGFTFDDYSMHWVRQAPGKGLEWVSGISWNSGSKGYADSVKGRFTISRDNAKNSLYLQMNSLRAEDTALYYCAKYGSGYGKFYHYGLDVWGQGTTVTVSS
VL: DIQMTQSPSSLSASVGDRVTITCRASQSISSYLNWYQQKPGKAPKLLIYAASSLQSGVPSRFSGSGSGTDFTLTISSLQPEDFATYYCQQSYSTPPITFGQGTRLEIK
B14: BSPSMA/CD3-1400 CD3 arm (antibody, V domains shown)
VH: EVQLVESGGGLVQPGRSLRLSCAASGFTFDDYSMHWVRQAPGKGLEWVSGISWNSGSIGYADSVKGRFTISRDNAKNSLYLQMNSLRAEDTALYYCAKYGSGYGKFYHYGMDVWGQGTTVTVSS
VL: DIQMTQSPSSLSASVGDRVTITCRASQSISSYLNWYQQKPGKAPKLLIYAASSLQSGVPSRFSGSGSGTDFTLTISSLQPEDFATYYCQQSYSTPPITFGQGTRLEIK
B15: H2M2704N (antibody, V domains shown)
VH: QVQLVESGGGVVQPGRSLRLSCGASGFTFRSYGMHWVRQTPGRGLEWVAMIYYDGNNKYYADSVRGRFTVSRDNSKNTLYLQMSSLRAEDTALYFCARGPGYNWLDPWGQGTLVTVSS
VL: EIVMTQSPATLSVSPGERATLSCRASQSISRNLAWYQXKPGQAPRLLIYGASTRATGIPARFSGSGSGTEFTLTISSLQSEDFAVYYCQQYNNRPLTFGGGTEVEIK
modifications: not fully specified; listing feature
B16: H2M2710N (antibody, V domains shown)
VH: QVQLVESGGGVVQPGRSLRLSCAASGFTFRSFGMHWVRQAPGRGLEWVAMIYFDGKNKYYADSVRGRFTISRDNSKNTLYLEMSSLRAEDTAVYFCARGPGYNWLDPWGQGTLVTVSS
VL: EIVMTQSPATLSVSPGERATLSCRASQSVSRNLAWYQQKPGQAPRLLIYGASTRATGVPARFSGSGSGTEFTLTISSLQSEDFAVFHCQQYNNRPLTFGGGTEVEIK
B17: H1M3549N (antibody, V domains shown)
VH: EVQLVESGGGLVQPGRSLRLSCVASGFPFADYTMHWVRQAPGKGLEWVSDISWNSGSIGYADSVKGRFTISRDNAKNSLYLQMNSLRTEDTALYYCAKDMSGYAHYFYYGMDVWGQGTTVTVSS
VL: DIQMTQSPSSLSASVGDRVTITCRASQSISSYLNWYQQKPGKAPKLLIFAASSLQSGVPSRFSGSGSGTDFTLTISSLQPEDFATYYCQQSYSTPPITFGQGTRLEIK
B18: H2M3543N (antibody, V domains shown)
VH: EVQLVESGGGLVQPGRSLRLSCAASGFTFDDYTMHWVRQAPGKGLEWVSDISWNSGSIGYADSVKGRFTVSRDNAKNSLYLQMNSLRGEDTALYYCAKDMSGYAHYGYYGMDVWGQGTTVTVSS
VL: DIQMTQSPSSLSASVGDRVTITCRASQSIRNYLNWYQQKPGKVPKLLIYAASSLQSGVPSRFSGSGSGTDFTLTISSLQPEDFATYYCQQSYSNPPITFGQGTRLEIK
B19: H2M3541N (antibody, V domains shown)
VH: EVQLVESGGGLVRPGRSLRLSCAASGFTFDDYTMHWVRQAPGKGLEWVSDISWNSGTIGYADSVKGRFTISRDNAKNSLYLQMNSLRPEDTALYYCAKDMSGYAHYYYYGMDVWGQGTTVTVSS
VL: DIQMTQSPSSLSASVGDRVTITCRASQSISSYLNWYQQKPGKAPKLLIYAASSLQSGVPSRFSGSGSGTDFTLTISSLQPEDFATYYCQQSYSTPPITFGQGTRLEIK
B20: H1H5777P (antibody, V domains shown)
VH: EVQLVESGGGLVQPGRSLRLSCAASGFTFDDYAMHWVRQAPGKGLEWVSGISWNSGSRDYADSVKGRFTISRDNARNSLFLQMNSLSTEDTALYYCAKDKSGYGSYYYGMDVWGQGTTVTVSS
VL: EIVLTQSPGTLSLSPGDRATLSCRASQSIRSIYLAWYQQKPGQAPRLLIHGASTRATGIPDRFSGSGSGTDFTLTISRLEPEDFAVYYCQQRVSSPYTFGQGTKLEIK
B21: H1H5769P (antibody, V domains shown)
VH: EVQLVESGGGLVQPGRSLRLSCAASGFTFDDYTMHWVRQVPGKGLEWISGISWNSGSMDYADSVKGRFTISRDNARNSLFLQMNSVRTEDTALYYCAKDKSGYGSFYYGMDVWGQGTTVTVSS
VL: EIVLTQSPGTLSLSPGDRATLSCRASQSVSSIYLAWYQQKPGQAPRLLIHGASTRATGIPDRFSGSGSGTDFTLTISRLEPEDFAVYYCQQRAHSPYTFGQGTKLEIK
B22: H1H5796B (antibody, V domains shown)
VH: EVQLVESGAEVKKPGASVKVSCKTSGYTFTGYYMHWIRQAPGQGLEWMGWINPKSGGTNYAQKFQGRVTMTRDTSISTAYMELSRLRSDDMAVYYCARMGDGAVFDFWGQGTLVTVSS
VL: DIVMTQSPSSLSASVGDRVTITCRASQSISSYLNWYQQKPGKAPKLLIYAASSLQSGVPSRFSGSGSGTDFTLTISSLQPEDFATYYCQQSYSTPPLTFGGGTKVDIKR

Legend:
[1] = molecular target: human CD3 on Jurkat cells (human); assay: FACS
Sequence of human CD3 on Jurkat cells (human) (chain, as listed by the source, chain 1 of 2): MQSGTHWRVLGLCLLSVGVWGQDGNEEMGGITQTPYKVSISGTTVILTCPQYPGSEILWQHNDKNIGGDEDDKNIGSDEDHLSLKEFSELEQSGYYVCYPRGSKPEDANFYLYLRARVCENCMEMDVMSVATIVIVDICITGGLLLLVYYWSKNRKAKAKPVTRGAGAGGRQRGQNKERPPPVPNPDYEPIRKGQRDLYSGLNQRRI
Sequence of human CD3 on Jurkat cells (human) (chain, as listed by the source, chain 2 of 2): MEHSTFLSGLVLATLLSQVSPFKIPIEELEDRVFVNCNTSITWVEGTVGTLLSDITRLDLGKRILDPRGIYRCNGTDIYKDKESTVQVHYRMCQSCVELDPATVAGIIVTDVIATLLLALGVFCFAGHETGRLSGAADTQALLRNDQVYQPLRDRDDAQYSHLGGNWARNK

[2] = molecular target: human CD3 epsilon/delta heterodimer, Fc-tagged (human); assay: SPR, 25C antigen-capture
Sequence of human CD3 epsilon/delta heterodimer, Fc-tagged (human) (chain, as listed by the source mutant, chain 1 of 2): as the sequence (chain, as listed by the source, chain 1 of 2) above
Sequence of human CD3 epsilon/delta heterodimer, Fc-tagged (human) (chain, as listed by the source mutant, chain 2 of 2): as the sequence (chain, as listed by the source, chain 2 of 2) above

[3] = molecular target: human CD3 epsilon/delta heterodimer, Fc-tagged (human); assay: SPR, 25C antibody-capture
[4] = molecular target: T1, cynomolgus CD3 on T cells; assay: FACS
[5] = molecular target: human CD3 on Jurkat cells (human); assay: FACS; remark: listed apart in the source
[6] = molecular target: human CD3 epsilon/delta heterodimer, Fc-tagged (human); assay: SPR, 37C
[7] = molecular target: human CD3 epsilon/delta heterodimer, Fc-tagged (human); assay: SPR, 25C antibody-capture; remark: listed apart in the source
[8] = molecular target: T1, cynomolgus CD3 on T cells; assay: FACS
[9] = molecular target: human CD3 epsilon/delta heterodimer, Fc-tagged (human); assay: SPR, 37C; remark: listed apart in the source
[10] = molecular target: human CD3 on Jurkat cells (human); assay: FACS; remark: listed apart in the source

Row | Binder | EC50 [1] | EC50 [4] | EC50 [5] | Kd [6] | further results
1 | B1 | 2.12 nM | – | – | – | Kd [2]: 3.42 nM; Kd [3]: 129 nM
2 | B2 | 2.1 nM | – | – | – | Kd [2]: 53.4 nM; Kd [3]: 5160 nM
3 | B3 | 0.88 nM | – | – | – | Kd [2]: 21 nM
4 | B4 | 1.9 nM | – | – | – | –
5 | B5 | – | 3350 nM | 200 nM | 65.2 nM | –
6 | B6 | – | 6140 nM | 210 nM | 334 nM | –
7 | B7 | – | – | – | – | Kd [7]: 8.9 nM
8 | B8 | – | – | ~1000 nM | – | binding result [8]: no binding; binding result [9]: no binding
9 | B9 | – | 890 nM | 18.3 nM | 11.1 nM | –
10 | B10 | – | 2170 nM | 102 nM | 122 nM | –
11 | B11 | – | – | 126 nM | – | binding result [8]: no binding; binding result [9]: no binding
12 | B12 | – | 19.6 nM | – | 19.4 nM | –
13 | B13 | – | 14.2 nM | – | 5.78 nM | –
14 | B14 | – | 170 nM | 31.9 nM | 53.3 nM | –
15 | B15 | – | – | – | – | Kd [7]: 20 nM
16 | B16 | – | – | – | – | EC50 [10]: 0.71 nM
17 | B17 | – | – | – | – | EC50 [10]: 2.3 nM
18 | B18 | – | – | – | – | Kd [7]: 30 nM
19 | B19 | – | – | – | – | EC50 [10]: 3.7 nM
20 | B20 | 0.571 nM | – | – | – | Kd [2]: 3.52 nM; Kd [3]: 224 nM
21 | B21 | 4.1 nM | – | – | – | Kd [2]: 4.41 nM; Kd [3]: 121 nM
22 | B22 | 9.82 nM | – | – | – | Kd [2]: 2.32 nM; Kd [3]: 60.5 nM

Reference: US20210403595 (published 2021)
